Test results as given in the supplement of paper PMC9233669.
This sample holds only a part of the variants without activity.

Tests used:
[1] = tested on: biotinyl-Phe-oxazolone; assay: self-aminoacylation, catalytic enhancement (BFO) (fold over background); higher = more active; k-Seq, kA / k0A0; sequences stand for … in GGGAAUGGAUCCACAUCUACGAAUUC…UUCACUGCAGACUUGACGAAGCUG
Procedure, shortened: (§1)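 Working in 50 μL HEPES/NaCl/KCl/MgCl2/CaCl2 buffer with 5% acetonitrile at pH 6.9–7.0, mutagenized RNA pools (0.43 μM; 21-nt variable region) were reacted with 2–1250 μM of each biotinyl-aminoacyl-oxazolone for 90 minutes at room temperature. Streptavidin capture followed, with quantification by triplicate qPCR and Illumina sequencing. Catalytic enhancement is reported as median kA over the uncatalyzed rate, the low-activity peak of a bimodal Gaussian fit to the data.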

[2] = tested on: biotinyl-Leu-oxazolone; assay: self-aminoacylation, catalytic enhancement (BLO) (fold over background); higher = more active; k-Seq, kA / k0A0; sequences stand for … in GGGAAUGGAUCCACAUCUACGAAUUC…UUCACUGCAGACUUGACGAAGCUG
Procedure, shortened: as §1

[3] = tested on: biotinyl-Ile-oxazolone; assay: self-aminoacylation, catalytic enhancement (BIO) (fold over background); higher = more active; k-Seq, kA / k0A0; sequences stand for … in GGGAAUGGAUCCACAUCUACGAAUUC…UUCACUGCAGACUUGACGAAGCUG
Procedure, shortened: as §1

[4] = tested on: biotinyl-Met-oxazolone; assay: self-aminoacylation, catalytic enhancement (BMO) (fold over background); higher = more active; k-Seq, kA / k0A0; sequences stand for … in GGGAAUGGAUCCACAUCUACGAAUUC…UUCACUGCAGACUUGACGAAGCUG
Procedure, shortened: as §1

[5] = tested on: biotinyl-Trp-oxazolone; assay: self-aminoacylation, catalytic enhancement (BWO) (fold over background); higher = more active; k-Seq, kA / k0A0; sequences stand for … in GGGAAUGGAUCCACAUCUACGAAUUC…UUCACUGCAGACUUGACGAAGCUG
Procedure, shortened: as §1

[6] = tested on: biotinyl-Val-oxazolone; assay: self-aminoacylation, catalytic enhancement (BVO) (fold over background); higher = more active; k-Seq, kA / k0A0; sequences stand for … in GGGAAUGGAUCCACAUCUACGAAUUC…UUCACUGCAGACUUGACGAAGCUG
Procedure, shortened: as §1

| Sequence | self-aminoacylation [1] | self-aminoacylation [2] | self-aminoacylation [3] | self-aminoacylation [4] | self-aminoacylation [5] | self-aminoacylation [6] |
| --- | --- | --- | --- | --- | --- | --- |
| CUACUACUAACAAUCGGUCUG [Fam1A.1 aminoacylation ribozyme variant] | 1 | 0.495 | 0.764 | 0.729 | 0.466 | 0.673 |
| CUACUCAAAACAAUCGGUCUG [Fam1A.1 aminoacylation ribozyme variant] | 1.27 | 0.676 | 1.02 | 1.11 | 1.23 | 0.968 |
| CUACUCCAAACAAUAGGUCUG [Fam1A.1 aminoacylation ribozyme variant] | 1.17 | 0.744 | 0.839 | 0.938 | 0.734 | 0.776 |
| CUACUCCAAACAAUCGGCCUG [Fam1A.1 aminoacylation ribozyme variant] | 3.54 | 2.07 | 1.65 | 1.38 | 3.22 | 1.42 |
| CUACUCCAAACAAUCGGUCUC [Fam1A.1 aminoacylation ribozyme variant] | 2.41 | 0.513 | 0.71 | 0.753 | 1.34 | 0.723 |
| CUACUCCAAACAAUCGGUCUG [Fam1A.1 aminoacylation ribozyme variant] | 3.09 | 0.731 | 0.801 | 0.786 | 1.95 | 0.825 |
| CUACUCCAAACAAUCGGUGUG [Fam1A.1 aminoacylation ribozyme variant] | 1.03 | 0.964 | 0.733 | 0.945 | 0.752 | 0.879 |
| CUACUCCAAACAAUCUGUCUG [Fam1A.1 aminoacylation ribozyme variant] | 0.973 | 0.716 | 0.799 | 0.578 | 0.506 | 0.766 |
| CUACUCCAACCAAUCGGUCUG [Fam1A.1 aminoacylation ribozyme variant] | 0.726 | 0.855 | 0.623 | 0.74 | 0.879 | 0.706 |
| CUACUCCACACAAUCGGUCUG [Fam1A.1 aminoacylation ribozyme variant] | 0.891 | 0.702 | 0.696 | 0.722 | 0.9 | 0.731 |
| CUACUCGAAACAAUCGGUCUG [Fam1A.1 aminoacylation ribozyme variant] | 0.599 | 0.84 | 0.837 | 0.942 | 0.979 | 1.01 |
| CUACUGCAAAAAAUCGGUCUG [Fam1A.1 aminoacylation ribozyme variant] | 0.868 | 0.638 | 0.788 | 0.686 | 0.892 | 0.703 |
| CUACUGCAAACAAUCGAUCUG [Fam1A.1 aminoacylation ribozyme variant] | 0.699 | 0.663 | 0.705 | 0.937 | 0.679 | 0.732 |
| CUACUGCAAACAAUCGGGCUG [Fam1A.1 aminoacylation ribozyme variant] | 8.54 | 1.61 | 1.74 | 1.69 | 0.887 | 1.98 |
| CUACUGCAAACAAUCGGUCUG [Fam1A.1 aminoacylation ribozyme variant] | 1.08 | 0.776 | 0.804 | 0.769 | 0.77 | 0.844 |
| CUACUGCAUACAAUCGGUCUG [Fam1A.1 aminoacylation ribozyme variant] | 0.959 | 0.577 | 0.677 | 0.612 | 0.659 | 0.643 |
| CUACUUAAAAAAAUCGGUCUG [Fam1A.1 aminoacylation ribozyme variant] | 0.661 | 0.768 | 0.88 | 0.806 | 0.49 | 0.804 |
| CUACUUAAAACAAACGGUCUG [Fam1A.1 aminoacylation ribozyme variant] | 0.836 | 0.933 | 0.911 | 0.871 | 0.67 | 0.895 |
| CUACUUAAAACAAGCGGUCUG [Fam1A.1 aminoacylation ribozyme variant] | 0.744 | 0.836 | 1.04 | 0.926 | 0.982 | 0.902 |
| CUACUUAAAACAAUCGGUCCG [Fam1A.1 aminoacylation ribozyme variant] | 0.603 | 0.908 | 0.878 | 1.12 | 0.709 | 0.835 |
| CUACUUAAAACAAUCGGUCUA [Fam1A.1 aminoacylation ribozyme variant] | 0.81 | 0.602 | 0.766 | 0.729 | 0.711 | 0.894 |
| CUACUUAAAACUAUCGGUCUG [Fam1A.1 aminoacylation ribozyme variant] | 0.83 | 0.97 | 1.11 | 0.922 | 0.746 | 1.06 |
| CUACUUAAGACAAUCGGUCUG [Fam1A.1 aminoacylation ribozyme variant] | 0.817 | 0.668 | 0.775 | 0.909 | 0.71 | 0.783 |
| CUACUUCAAAAAAUCGGCCUG [Fam1A.1 aminoacylation ribozyme variant] | 15.3 | 1.7 | 1.9 | 1.73 | 13.1 | 1.56 |
| CUACUUCAAAAAAUCGGUCCG [Fam1A.1 aminoacylation ribozyme variant] | 1.57 | 0.761 | 0.724 | 0.749 | 1.31 | 0.604 |
| CUACUUCAAAAAAUCGUUCUG [Fam1A.1 aminoacylation ribozyme variant] | 1.03 | 0.57 | 0.605 | 0.564 | 0.581 | 0.613 |

| Sequence | self-aminoacylation [1] | self-aminoacylation [2] | self-aminoacylation [3] | self-aminoacylation [4] | self-aminoacylation [5] | self-aminoacylation [6] |
| --- | --- | --- | --- | --- | --- | --- |
| CUACUUCAAACAAACGGUCGG [Fam1A.1 aminoacylation ribozyme variant] | 0.694 | 0.809 | 1.05 | 0.726 | 0.585 | 0.944 |
| CUACUUCAAACAACCGGUAUG [Fam1A.1 aminoacylation ribozyme variant] | 0.739 | 0.803 | 0.785 | 0.707 | 0.873 | 0.805 |
| CUACUUCAAACAACCGGUCGG [Fam1A.1 aminoacylation ribozyme variant] | 1.17 | 1.24 | 0.978 | 1.05 | 0.808 | 1.08 |
| CUACUUCAAACAACCUGUCUG [Fam1A.1 aminoacylation ribozyme variant] | 0.494 | 0.589 | 0.74 | 0.52 | 0.325 | 0.736 |
| CUACUUCAAACAAGCCGUCUG [Fam1A.1 aminoacylation ribozyme variant] | 0.59 | 0.872 | 0.78 | 0.925 | 0.926 | 0.746 |
| CUACUUCAAACAAGCGGGCUG [Fam1A.1 aminoacylation ribozyme variant] | 0.943 | 1.38 | 1.79 | 1.38 | 1.88 | 1.41 |
| CUACUUCAAACAAGCGGUUUG [Fam1A.1 aminoacylation ribozyme variant] | 0.557 | 0.705 | 0.89 | 0.637 | 0.559 | 0.701 |
| CUACUUCAAACAAGGGGUCUG [Fam1A.1 aminoacylation ribozyme variant] | 0.71 | 0.748 | 0.773 | 0.746 | 0.593 | 0.801 |
| CUACUUCAAACAAUAGGUCUC [Fam1A.1 aminoacylation ribozyme variant] | 1.03 | 0.493 | 0.666 | 0.535 | 0.459 | 0.657 |
| CUACUUCAAACAAUAGGUCUU [Fam1A.1 aminoacylation ribozyme variant] | 0.985 | 0.827 | 0.947 | 0.75 | 0.538 | 0.828 |
| CUACUUCAAACAAUCAGCCUG [Fam1A.1 aminoacylation ribozyme variant] | 21 | 1.01 | 0.99 | 0.824 | 9.56 | 1.17 |
| CUACUUCAAACAAUCAGUCCG [Fam1A.1 aminoacylation ribozyme variant] | 10.8 | 0.623 | 0.632 | 0.753 | 4.05 | 0.783 |
| CUACUUCAAACAAUCAUUCUG [Fam1A.1 aminoacylation ribozyme variant] | 3.72 | 0.513 | 0.616 | 0.488 | 1.55 | 0.577 |
| CUACUUCAAACAAUCCGUCUU [Fam1A.1 aminoacylation ribozyme variant] | 0.785 | 0.802 | 0.814 | 0.764 | 0.691 | 0.862 |
| CUACUUCAAACAAUCGACCUG [Fam1A.1 aminoacylation ribozyme variant] | 1.6 | 0.45 | 0.608 | 0.545 | 0.661 | 0.636 |
| CUACUUCAAACAAUCGAUCGG [Fam1A.1 aminoacylation ribozyme variant] | 0.743 | 0.721 | 0.647 | 0.56 | 0.676 | 0.73 |
| CUACUUCAAACAAUCGAUCUG [Fam1A.1 aminoacylation ribozyme variant] | 3.4 | 0.572 | 0.663 | 0.574 | 1.34 | 0.693 |
| CUACUUCAAACAAUCGCUCCG [Fam1A.1 aminoacylation ribozyme variant] | 1.08 | 0.775 | 0.768 | 0.713 | 1.02 | 0.926 |
| CUACUUCAAACAAUCGGACAG [Fam1A.1 aminoacylation ribozyme variant] | 1.19 | 0.672 | 0.782 | 0.718 | 0.656 | 0.709 |
| CUACUUCAAACAAUCGGACUU [Fam1A.1 aminoacylation ribozyme variant] | 1.04 | 0.665 | 0.788 | 0.737 | 1.07 | 0.85 |
| CUACUUCAAACAAUCGGAGUG [Fam1A.1 aminoacylation ribozyme variant] | 6.37 | 4.96 | 3.06 | 3.25 | 3.77 | 2.52 |
| CUACUUCAAACAAUCGGCCUA [Fam1A.1 aminoacylation ribozyme variant] | 2.51 | 1.25 | 1.48 | 1.39 | 1.43 | 1.16 |
| CUACUUCAAACAAUCGGGCGG [Fam1A.1 aminoacylation ribozyme variant] | 1.71 | 1.31 | 1.63 | 1.53 | 1.79 | 1.4 |
| CUACUUCAAACAAUCGGUAUC [Fam1A.1 aminoacylation ribozyme variant] | 2.2 | 0.554 | 0.635 | 0.541 | 0.994 | 0.594 |
| CUACUUCAAACAAUCGGUGUA [Fam1A.1 aminoacylation ribozyme variant] | 1.33 | 1.12 | 0.983 | 1.05 | 0.989 | 0.946 |
